Results on 1 molecule are retold here after patent US20230002481A1 (Chugai, published 2023).

In the assay the target is T1, recombinant human C1r2s2 tetramer (human, UniProt P09871 16-688; P00736 18-705).
T1 construct: Heterotetramer of two C1r and two C1s chains, co-expressed in FreeStyle293-F cells; also called human C1r2s2s
T1 chain 1: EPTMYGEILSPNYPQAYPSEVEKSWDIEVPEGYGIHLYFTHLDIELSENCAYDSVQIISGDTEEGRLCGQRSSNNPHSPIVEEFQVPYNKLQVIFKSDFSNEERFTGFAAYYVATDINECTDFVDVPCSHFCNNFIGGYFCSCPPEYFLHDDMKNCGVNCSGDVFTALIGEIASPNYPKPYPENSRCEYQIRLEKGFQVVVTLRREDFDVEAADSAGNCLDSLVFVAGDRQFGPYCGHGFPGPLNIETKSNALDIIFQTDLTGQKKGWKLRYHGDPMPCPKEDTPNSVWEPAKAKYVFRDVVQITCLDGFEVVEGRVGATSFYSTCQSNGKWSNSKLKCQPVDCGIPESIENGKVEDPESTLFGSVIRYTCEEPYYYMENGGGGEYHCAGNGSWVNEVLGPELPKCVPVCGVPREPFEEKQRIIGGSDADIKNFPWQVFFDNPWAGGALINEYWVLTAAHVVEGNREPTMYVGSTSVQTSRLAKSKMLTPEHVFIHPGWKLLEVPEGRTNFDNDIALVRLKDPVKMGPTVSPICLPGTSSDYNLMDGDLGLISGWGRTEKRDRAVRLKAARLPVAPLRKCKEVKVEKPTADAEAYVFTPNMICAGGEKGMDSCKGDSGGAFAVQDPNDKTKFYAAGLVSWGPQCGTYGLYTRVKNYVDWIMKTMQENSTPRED
T1 chain 2: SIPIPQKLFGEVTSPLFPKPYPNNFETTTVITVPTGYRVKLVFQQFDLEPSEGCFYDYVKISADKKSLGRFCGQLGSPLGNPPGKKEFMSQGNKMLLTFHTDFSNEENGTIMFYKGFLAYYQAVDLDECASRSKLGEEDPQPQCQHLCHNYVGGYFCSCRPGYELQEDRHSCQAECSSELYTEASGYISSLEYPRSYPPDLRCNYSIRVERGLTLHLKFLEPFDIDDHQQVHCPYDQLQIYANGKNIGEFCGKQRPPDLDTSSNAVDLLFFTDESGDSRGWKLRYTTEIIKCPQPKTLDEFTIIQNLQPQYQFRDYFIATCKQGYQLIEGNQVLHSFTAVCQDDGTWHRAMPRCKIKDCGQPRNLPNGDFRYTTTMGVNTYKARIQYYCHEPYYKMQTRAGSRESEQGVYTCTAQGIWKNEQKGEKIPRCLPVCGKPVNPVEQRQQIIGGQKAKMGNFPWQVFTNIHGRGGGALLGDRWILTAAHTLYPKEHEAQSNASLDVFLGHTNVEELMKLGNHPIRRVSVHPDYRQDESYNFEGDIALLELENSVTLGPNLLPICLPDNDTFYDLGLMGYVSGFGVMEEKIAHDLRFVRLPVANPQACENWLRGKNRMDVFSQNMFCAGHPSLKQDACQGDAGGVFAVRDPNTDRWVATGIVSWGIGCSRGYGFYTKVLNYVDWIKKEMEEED
In words: SPR (Biacore), antibody captured on ProA/G, antigen as analyte, 37 C, pH5.8, 1.2 mM CaCl2; pH 5.8. The method, then:
The kinetic parameters of anti-C1s antibodies against recombinant human C1s (as described in PCT/JP2018/042054), human C1r2s2, and cyno C1r2s2 His/Flag (also referred as cyno C1r2s2 in the Table and Figures) were assessed at pH7.4 and pH5.8, at 37 degrees C. using BIACORE (registered trademark) T200 instrument (GE Healthcare) or BIACORE 4000 (GE Healthcare). ProAG (Pierce) was immobilized onto a CM4 sensorchip using amine coupling kit (GE Healthcare) according to the recommended settings by GE Healthcare. Antibodies and analytes were diluted into the respective running buffers, ACES pH7.4 and pH5.8 (20 mM ACES, 150 mM NaCl, 1.2 mM CaCl₂, 1 mg/ml BSA, 1 mg/ml CMD, 0.05% Tween 20, 0.005 w/v % NaN₃). Each antibody was captured onto the sensor surface by ProA/G. Antibody capture levels were typically 100-200 resonance units (RU). Then, recombinant C1s was injected at concentrations of 25 and 50 nM followed by dissociation at pH7.4 and pH5.8. The surface was regenerated using 10 mM Glycine-HCl, pH1.5. Kinetic parameters at neutral pH conditions and acidic conditions were determined by fitting the sensorgrams with 1:1 binding model using BIACORE (registered trademark) T200 Evaluation software, version 2.0 (GE Healthcare) or BIACORE 4000 Evaluation software. The dissociation rate at pH5.8 (after dissociation at pH7.4, indicated as pH5.8* in TABLE 2) was determined by processing and fitting data using Scrubber 2.0 (BioLogic Software) curve fitting software. The association rate (ka), dissociation rate (kd), binding affinity (KD) at pH7.4 and pH5.8 condition, and dissociation rate (kd) at pH5.8* condition of the antibodies are listed in TABLE 2. Some kinetic parameters of COS0098pHv1 in acidic condition were not correctly calculated because of its weak binding response.
Also, to observe the cross-reactivity of anti-C1s antibodies against human C1r2s2 and cyno C1r2s2 (cyno C1r2s2 His/Flag), BIACORE (registered trademark) kinetics analysis was performed.

B1: COS0098bb (antibody, V domains shown)
VH: QSVEESGGRLVTPGTPLTLTCTVSGFSLTKYTVSWVRQAPGKGLEWIGIINTGGSAYYATWAKGRFTFSKTSTTVDLQITSPTTEDTATYFCARGNGDTDYTNLWGPGTLVTVSS
VL: QVLTQTPSSVSEPVGGTVTINCQASENIYSALAWYQQKPGQPPKLLIYGASNLESGVPSRFKGSGSGTQFTLTISDLECADAATYYCQQYYFTSSTFGGGTKVEIK
notes: Anti-C1s rabbit antibody, parent of COS0098pHv1; the antibody was captured by ProA/G; also called anti-C1s antibody COS0098bb
Broadly, the Kd is the equilibrium constant for the complex coming apart. For orientation: koff means a measure of how fast the partners let go of each other. For orientation: kon means the second-order rate constant of association. B1: the dissociation constant Kd was found to be 1.2 nM, the koff stood at 0.00103 s⁻¹ and the kon amounted to 858000 M⁻¹ s⁻¹.
